Tested on: Oc1c(Br)cc(Br)cc1Br
Experiment: purified protein
Conditions: reduced methyl viologen 0.5 mM / Ti(III) citrate 1.4 mM, 100 mM Tris-HCl pH 7.5, 22 °C, no NH4+

PceA (PceA–Strep) (Sulfurospirillum multivorans)
Km: 158 µM | kcat: 8 s⁻¹
